Where two headings read alike, the source gives them in different places.

In assay [1] the target is T1, His-caspase-8(184-384) (UniProt Q14790 184-384). The experiment in a line: pull-down.
Assay [2] deals with T1, His-caspase-8(184-384). Nature of the assay: pull-down. The source holds these as a separate data set.

T1 sequence (Q14790 184-384): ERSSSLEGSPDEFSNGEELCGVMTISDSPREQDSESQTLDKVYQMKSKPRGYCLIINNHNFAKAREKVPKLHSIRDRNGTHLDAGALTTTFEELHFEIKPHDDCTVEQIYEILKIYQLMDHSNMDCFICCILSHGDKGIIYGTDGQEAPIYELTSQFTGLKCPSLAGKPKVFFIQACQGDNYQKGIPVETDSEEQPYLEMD

Consider CQCRRKNYGQLDIFPARDTY [synthetic MUC1-CD(1-20) peptide], for which the binding result in assay [1] is “binds”.
Take CQCRRKNYGQLDIFPARDTY (domain or fragment, human) [GST-MUC1-CD(1-20)]: the binding result in assay [2] is listed as “binds”.

The values above are taken from PMC2536759 (Cancer research, 2008).
